Measured values: patent US11008402 (dated 2021)
“And” between values parts separate entries of the source, which are not always exact repeats. Equal values may be shown once. Read-outs that look alike come from different tables or passages of the source.

Experiments:
[1] = biological target: T1, HER3 359-643-Fc (human); assay: ELISA
T1 chain: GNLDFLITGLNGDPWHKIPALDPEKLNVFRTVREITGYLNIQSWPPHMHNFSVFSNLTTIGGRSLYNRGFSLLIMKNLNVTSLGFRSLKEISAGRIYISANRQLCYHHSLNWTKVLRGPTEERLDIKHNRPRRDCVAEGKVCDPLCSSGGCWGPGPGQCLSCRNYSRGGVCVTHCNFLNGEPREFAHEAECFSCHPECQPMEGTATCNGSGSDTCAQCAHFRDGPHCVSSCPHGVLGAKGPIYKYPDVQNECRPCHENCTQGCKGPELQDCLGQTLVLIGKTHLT

[2] = biological target: HER3-Fc ECD (human); assay: ELISA
[3] = biological target: HER3-His ECD (human); assay: ELISA
[4] = biological target: T2, HER3 329-550-Fc (human); assay: ELISA
T2 chain: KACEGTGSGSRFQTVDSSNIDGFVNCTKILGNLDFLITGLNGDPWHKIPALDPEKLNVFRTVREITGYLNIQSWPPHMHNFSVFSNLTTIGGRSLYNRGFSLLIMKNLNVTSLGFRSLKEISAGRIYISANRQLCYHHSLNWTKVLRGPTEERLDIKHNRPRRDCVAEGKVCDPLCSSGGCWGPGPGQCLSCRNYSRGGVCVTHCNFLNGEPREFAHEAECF

[5] = biological target: HER3 20-531-Fc (human); assay: ELISA
[6] = biological target: HER3-His ECD (human); assay: ELISA; remark: listed apart in the source
[7] = biological target: HER3-His ECD (human); assay: ELISA; remark: listed apart in the source
[8] = biological target: T3, HER3 458-643-Fc (human); assay: ELISA
T3 chain: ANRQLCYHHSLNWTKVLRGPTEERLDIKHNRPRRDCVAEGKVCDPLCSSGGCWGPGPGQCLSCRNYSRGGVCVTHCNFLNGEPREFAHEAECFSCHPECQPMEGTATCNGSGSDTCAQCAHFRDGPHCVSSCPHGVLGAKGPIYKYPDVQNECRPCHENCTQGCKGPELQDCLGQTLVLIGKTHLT

[9] = biological target: T4, HER3 359-587-Fc (human); assay: ELISA
T4 chain: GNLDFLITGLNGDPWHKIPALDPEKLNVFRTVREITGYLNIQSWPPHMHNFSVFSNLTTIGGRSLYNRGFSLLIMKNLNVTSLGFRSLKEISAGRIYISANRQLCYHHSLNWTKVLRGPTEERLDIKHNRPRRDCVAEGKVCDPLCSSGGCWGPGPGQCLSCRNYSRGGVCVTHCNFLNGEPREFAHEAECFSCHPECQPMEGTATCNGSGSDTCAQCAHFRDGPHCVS

[10] = biological target: T5, HER3 DIV-Fc (human); assay: ELISA
T5 chain: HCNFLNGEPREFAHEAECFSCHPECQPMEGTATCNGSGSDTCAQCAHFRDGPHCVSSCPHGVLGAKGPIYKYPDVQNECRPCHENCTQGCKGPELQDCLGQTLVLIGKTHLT

[11] = biological target: T6, HER3 20-358-Fc (human); assay: ELISA
T6 chain: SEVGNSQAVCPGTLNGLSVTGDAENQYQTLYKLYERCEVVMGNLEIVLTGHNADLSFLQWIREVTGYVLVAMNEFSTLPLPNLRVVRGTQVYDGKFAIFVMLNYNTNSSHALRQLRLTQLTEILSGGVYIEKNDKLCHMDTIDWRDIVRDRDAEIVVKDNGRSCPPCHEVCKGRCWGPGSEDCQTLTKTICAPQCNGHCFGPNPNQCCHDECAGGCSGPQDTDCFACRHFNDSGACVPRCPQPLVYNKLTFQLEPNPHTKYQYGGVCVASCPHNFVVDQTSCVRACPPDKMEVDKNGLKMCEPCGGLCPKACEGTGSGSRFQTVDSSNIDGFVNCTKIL

[12] = biological target: HER3 20-550-Fc (human); assay: ELISA
[13] = biological target: T7, HER3 395-643-Fc (human); assay: ELISA
T7 chain: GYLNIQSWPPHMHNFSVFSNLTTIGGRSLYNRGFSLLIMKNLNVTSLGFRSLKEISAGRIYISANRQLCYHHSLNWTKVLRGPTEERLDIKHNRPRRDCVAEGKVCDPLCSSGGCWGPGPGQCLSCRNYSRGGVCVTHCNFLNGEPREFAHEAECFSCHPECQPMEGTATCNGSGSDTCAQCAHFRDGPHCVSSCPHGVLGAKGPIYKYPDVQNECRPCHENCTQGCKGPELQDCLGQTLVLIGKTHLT

[14] = biological target: HER3 (cell surface) (human); assay: FACS, FaDu
[15] = biological target: HER3 (cell surface) (human); assay: FACS, FaDu; remark: listed apart in the source
[16] = biological target: HER3 (cell surface) (human); assay: FACS, FaDu; remark: listed apart in the source
[17] = biological target: HER3 (cell surface) (human); assay: FACS, MCF-7
[18] = biological target: HER3 (cell surface) (human); assay: FACS, SKBR-3
[19] = biological target: HER3-His ECD (human); assay: other, QCM Attana 25C
[20] = biological target: HER3-Fc ECD (human); assay: other, QCM Attana bivalent

binding result [1]: no binding
EC50 [2]: 270 pM and 400 pM
EC50 [3]: 330 pM
binding result [4]: no binding
binding result [5]: no binding
EC50 [6]: 330 pM and 540 pM
EC50 [7]: 230 pM
binding result [8]: no binding
binding result [9]: no binding
binding result [10]: no binding
binding result [11]: no binding
binding result [12]: no binding
binding result [13]: no binding
EC50 [14]: 300 pM
EC50 [15]: 6 pM
EC50 [16]: 3 pM
EC50 [17]: 21 pM
EC50 [18]: 22 pM
Kd [19]: 11200 pM
Kd [20]: 220 pM
B1: IgG 3-43 (antibody, V domains shown)
VH: QVQLQQSGPGLVKPSQTLSLTCAISGDSVSSNRAAWNWIRQSPSRGLEWLGRTYYRSKWYNDYAQSLKSRITINPDTPKNQFSLQLNSVTPEDTAVYYCARDGQLGLDALDIWGQGTMVTVSS
VL: QAGLTQPPAVSVAPGQTASITCGRDNIGSRSVHWYQQKPGQAPVLVVYDDSDRPAGIPERFSGSNYENTATLTISRVEAGDEADYYCQVWGITSDHVVFGGGTKLTVLG
